Reference: US20180118846A1 (published 2018)

How the values were obtained:
human Trop-2 [1] = biological target: T1, human Trop-2 (human, UniProt P09758 27-323); test: cell-based or functional assay
T1 sequence (looked up): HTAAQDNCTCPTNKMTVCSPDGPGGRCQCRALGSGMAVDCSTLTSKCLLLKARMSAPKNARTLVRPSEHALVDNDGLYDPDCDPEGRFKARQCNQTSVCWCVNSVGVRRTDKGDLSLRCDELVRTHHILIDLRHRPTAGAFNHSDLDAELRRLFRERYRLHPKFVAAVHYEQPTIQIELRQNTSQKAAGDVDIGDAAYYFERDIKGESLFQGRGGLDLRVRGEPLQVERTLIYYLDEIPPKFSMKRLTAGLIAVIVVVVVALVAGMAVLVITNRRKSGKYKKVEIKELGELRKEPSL

human Trop-2 [2] = biological target: T1, human Trop-2; test: cell-based or functional assay; remark: listed apart in the source
mouse Trop-2 = biological target: T2, mouse Trop-2 (mouse, UniProt Q8BGV3 25-270, limits assumed); test: not described (data not shown)
T2 sequence (looked up): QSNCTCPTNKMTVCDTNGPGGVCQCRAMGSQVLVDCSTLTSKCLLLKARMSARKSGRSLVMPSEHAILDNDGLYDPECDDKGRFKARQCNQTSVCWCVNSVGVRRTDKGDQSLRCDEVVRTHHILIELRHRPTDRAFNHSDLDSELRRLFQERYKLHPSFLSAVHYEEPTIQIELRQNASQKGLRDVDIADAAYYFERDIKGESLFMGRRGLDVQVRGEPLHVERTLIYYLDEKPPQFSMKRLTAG

mouse CD3 = mouse CD3 (mouse, UniProt P22646 22-108); test: not described (data not shown)
Sequence of mouse CD3 (P22646 22-108): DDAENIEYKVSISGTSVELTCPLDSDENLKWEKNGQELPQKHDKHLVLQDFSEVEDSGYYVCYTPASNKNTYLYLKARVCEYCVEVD

B1: (E1)-3s, anti-Trop-2 x anti-CD3 trivalent bispecific DNL complex (two CH1-DDD2-Fab-hRS7 + one scFv-AD2-Okt3) (bispecific antibody)
heavy (part 1 of 2): QVQLQQSGSELKKPGASVKVSCKASGYTFTNYGMNWVKQAPGQGLKWMGWINTYTGEPTYTDDFKGRFAFSLDTSVSTAYLQISSLKADDTAVYFCARGGFGSSYWYFDVWGQGSLVTVSS
heavy (part 2 of 2): not shown
light: DIQLTQSPSSLSASVGDRVSITCKASQDVSIAVAWYQQKPGKAPKLLIYSASYRYTGVPDRFSGSGSGTDFTLTISSLQPEDFAVYYCQQHYITPLTFGAGTKVEIK
scFv: not shown
notes: also called (E1)-35; TROP2-targeting bsAb; not shown: human CH1, first 4 hinge residues and Gly/Ser linker; human kappa constant domain
- T-cell killing of BxPC3, IC50 (human Trop-2 [1]): 0.4 pM
- T-cell lysis of NCI-N87, very active donor, IC50 (human Trop-2 [1]): 0.37 pM
- T-cell lysis of NCI-N87, very active donor, with 0.1 nM 20*-2b, IC50 (human Trop-2 [1]): 0.05 pM
- T-cell lysis of NCI-N87, very active donor, with 0.1 nM peginterferonalfa-2a, IC50 (human Trop-2 [1]): 0.14 pM
- T-cell lysis of NCI-N87, very weak donor T cells, EC50 (human Trop-2 [1]): 39 pM
- T-cell lysis of NCI-N87, very weak donor T cells, with peginterferonalfa-2a, EC50 (human Trop-2 [1]): 1.4 pM
- T-cell mediated lysis of Capan-1, IC50 (human Trop-2 [1]): 29 pM
- T-cell mediated lysis of NCI-N87, IC50 (human Trop-2 [1]): 0.85 pM
- ex vivo T cell redirected killing of BxPC3, donor 1, IC50 (human Trop-2 [2]): 1.06 pM
- ex vivo T cell redirected killing of BxPC3, donor 2, IC50 (human Trop-2 [2]): 0.56 pM
- ex vivo T cell redirected killing of BxPC3, donor 3, IC50 (human Trop-2 [2]): 0.32 pM
- ex vivo T cell redirected killing of Capan-1, donor 1, IC50 (human Trop-2 [2]): 35.6 pM
- ex vivo T cell redirected killing of Capan-1, donor 2, IC50 (human Trop-2 [2]): 248 pM
- ex vivo T cell redirected killing of Capan-1, donor 4, IC50 (human Trop-2 [2]): 8.51 pM
- ex vivo T cell redirected killing of NCI-N87, donor 1, IC50 (human Trop-2 [2]): 6.76 pM
- ex vivo T cell redirected killing of NCI-N87, donor 2, IC50 (human Trop-2 [2]): 34 pM
- binding result (mouse Trop-2): no binding
- binding result (mouse CD3): no binding
